Assay type in all cases: cell-based
One series relates to Human whole blood. The experiment in a line: Cytokine release in whole blood at 24 hrs, Luminex bead assay. How it is done:
Human whole blood (Lithium heparin tubes) was taken from two donors (HTA #300120-1 & #300120-2) at UCB Pharma Slough, UK according to approved ethical sample collection protocol.
In a Greiner 96-well non-binding microplate, stocks of 4133-6294 BYbe and negative control BYbe (NegCtrl BYbe), with antigen-irrelevant specificity in both the Fab and scFv positions, were prepared in PBS at 5000 nM. The BYbe reagents were then serially diluted in PBS 1 in 5, three times to produce to form a 4-point dose curve. 12.5 μl of BYbe dilution was transferred into Corning Costar 96-well, cell culture treated, U-shaped-bottom microplate (cat no. 07-200-95) and 237.5 μl of whole blood added to each well. Final well concentrations of BYbes were 250 nm, 50 nM, 10 nm and 2 nM. Campath (clinical grade, diluted from 30 mg/ml stock to 1 mg/ml in PBS, lot number F1002H29) was used as a positive control at a final concentration of 10 μg/ml. Plates were sealed with a gas permeable adhesive seal and plate lids were replaced. Plates were then incubated for 24 hrs at 37° C. and 5% humidified CO2 in an undisturbed location.
Cytokine release was then assessed using a R&D Systems Luminex 13-plex human cytokine assay (custom selection of cytokines as follows; IL-1 RA, IL-4, IL-5, IL-6, IL-10, IL-11, IL-13, CCL2, IL-8, CXCL1, CX3CL1, GM-CSF and M-CSF). Following the 24-hour incubation, plates were spun at 1000 g for 10 mins and 50 μl of plasma was transferred to a separate plate containing 50 μl of assay diluent buffer (RD6-52 from the Luminex kit). Samples were resuspended thoroughly using a multichannel pipette and 50 μl transferred to the Luminex assay plate. Luminex assay standards were diluted 1 in 2, seven times to construct standard curves and added to the plate. 50 μl of microparticle mixture was then added to each well and plates incubated for 2 hrs at room temperature (RT) and mixed at 800 rpm. Plates were washed 3 times by adding 150 μl of wash buffer to each well then allowing the magnetic beads to bind to a BioTek ELx405 microplate washer magnet before supernatant was aspirated. 50 μl of biotin-antibody cocktail was added to each well at plates incubated for 1 hr at RT with shaking. Plates were then washed as before and a final addition of 50 μl of streptavidin-PE added to each well. Plates were incubated for 30 mins at RT with shaking before a final wash step and addition of 50 μl of wash buffer to each well. The Luminex assay plate was run using the iQUEplus flow cytometer (Sartorius). Standard curves were generated (using provided assay controls) and extrapolated cytokine values generated using Forecyt software (Sartorius). Data was then transferred to Graphpad Prism version 8.1 (Graphpad) to generate data visualisations.

A further series deals with SU-DHL-4. The experiment in a line: Apoptosis of cell lines: SU-DHL-4. The conditions noted are these: SU-DHL-4, 21 hrs. An excerpt: (§1) The following cell lines representing various leukaemia's and lymphoma's, as classified by ATCC (www.atcc.org/), were used: Jurkat—acute T-cell leukaemia; CCRF-SB—B-cell acute lymphoblastic leukaemia; MC116—B-cell undifferentiated lymphoma; Raji, Ramos—Burkitt lymphoma (rare form of B-cell non-Hodgkin lymphoma); SU-DHL-4, SU-DHL-5, SU-DHL-8, NU-DUL-1, OCI-Ly3—Diffuse large B-cell lymphoma; THP-1—acute monocytic leukaemia; and Dakiki—B cell nasopharyngeal carcinoma.
(§2) Prior to an assay being performed, 1 vial of each of the above cell lines was thawed in a 37° C. water bath and then added to 20 ml complete media (RPMI 1640+2 mM GlutaMAX+1% Pen/Strep, all previous supplied by Invitrogen, +10% Fetal Bovine Serum (FBS), Sigma Aldrich). Cells were spun (500 g, 5 min, at RT) and re-suspended in 20 ml complete media to wash and spun again. Cells were resuspended in 10 ml complete media and then counted using a ChemoMetec NucleoCounter NC-3000. 6×10^6 cells of each cell line were spun (500 g, 5 min, at RT) and re-suspended in 4.8 ml complete media. 1×10^5 cells in 80 μl were then added to each well of a Corning Costar 96-well, cell culture treated, U-shaped-bottom microplate (cat no. 07-200-95). The plate was rested in a 37° C., 5% CO2 incubator for 2 hrs
(§3) Stocks of 4133-6294 BYbe and NegCtrl BYbe at 2500 nM in complete media were prepared. In a Greiner 96-well non-binding microplate, both reagents were serially diluted in complete media 1 in 5, seven times to produce to form an 8-point dose curve. […] (final well concentrations 500-0.0064 nM) was added to the cells. Each concentration was produced in triplicate. Camptothecin (cat no. C9911-100MG, Sigma Aldrich) and Staurosporine (cat no. 56942-200UL, Sigma Aldrich) were added as positive controls of apoptosis. Both were diluted in complete media and added to the well to produce a final concentration of 5 μM. Additional positive controls included anti-thymocyte globulin (ATG, indicated by FDA for use in conditioning regimens), Rituximab (anti-CD20, indicated by FDA for Non-Hodgkin Lymphoma and Chronic Lymphocytic Leukaemia) and Campath (anti-CD52, indicated by FDA for B-cell Chronic Lymphocytic Leukaemia). Anti-thymocyte globulin, Rituximab and Campath were added to the wells to produce final concentrations of 200 μg/ml, 500 nM and 200 μg/ml, respectively. […]
(§4) Following the incubation, the plates were spun at 500 g, 5 min, RT, the buffer was aspirated with a BioTek ELx405 microplate washer, and the cells were re-suspended in FACS buffer (PBS+1% bovine serum albumin (BSA)+0.1% NaN3+2 mM EDTA, Sigma Aldrich) to wash and then re-spun and buffer was aspirated to leave the cells in 20 μl residual media. […] Cells were analysed using the Bio-Rad ZE5 Cell Analyzer. […]

For the next series, the system named is Raji. The experiment in a line: Apoptosis of cell lines: Raji. The conditions noted are these: 21 hrs.
Source text: as §1, §2, §3, §4

The subject of another series is Jurkat. As to the kind of experiment: Apoptosis of cell lines: Jurkat. The conditions noted are these: 21 hrs.
Source text: as §1, §2, §3, §4

The subject of another series is NU-DUL-1. As to the kind of experiment: Apoptosis of cell lines: NU-DUL-1. The conditions noted are these: NU-DUL-1, 21 hrs.
Source text: as §1, §2, §3, §4

For another series, the system named is MC116. As to the kind of experiment: Apoptosis of cell lines: MC116. To be noted: MC116, 21 hrs.
Source text: as §1, §2, §3, §4

[1] abbreviates: Campath 10 μg/ml, donor #300120-1.

Marks after values point to notes of the source that are not given here.

Regarding “Campath: anti-CD52, clinical grade, indicated by FDA for B-cell Chronic Lymphocytic Leukaemia; positive control [reference compound]”, the IL-6 level induced result in the series on Human whole blood (Campath 10 μg/ml, above PBS-treated wells) was “marked levels”. In addition, the CCL2 level induced entry in the series with Human whole blood (setting [1]) is “exceeded the standard curve”. Besides, in the series with Human whole blood (setting [1]), the “IL-1 RA level induced” value was “exceeded the standard curve”. Besides, the IL-8 level induced result in the series on Human whole blood (setting [1]) is “exceeded the standard curve”. For the same molecule, the “Campath mean (%) cell reduction” value in the series on SU-DHL-4 (200 μg/ml) turned out to be 92.46%; with Raji (200 μg/ml), 36.00%; in the series on Jurkat (200 μg/ml) it was 5.64%; in the series with NU-DUL-1 (200 μg/ml), 67.49%; in the series with MC116 (200 μg/ml) it was 70.24%.

B1: 4133-6294 BYbe: anti-CD45 BYbe (Fab-scFv): 4133 Fab HC-G4S linker-6294 scFv heavy chain paired with 4133 light chain (antibody)
heavy: QEQLVESGGGLVQPEGSLTLTCTASGFSFSGNYYMCWVRQAPGKGLEWIGCLYTGSSGSTYYASWAKGRFTISKTSSTTVTLQMTSLTAADTATYFCARDLGYEIDGYGGLWGQGTLVTVSSGQPKAPSVFPLAPCCGDTPSSTVTLGCLVKGYLPEPVTVTWNSGTLTNGVRTFPSVRQSSGLYSLSSVVSVTSSSQPVTCNVAHPATNTKVDKTVAPSTCSKPGGGGSGGGGSEVQLVESGAELARPGASVKMSCKASGYTFTSYTMHWVKQRPGQCLEWIGYINPSSGYTEYNQKFKDKTTLTADKSSSTAYLQLSSLTSEDSAVYYCARVGDGFYPSWLAYWGQGTLVTVSSGGGGSGGGGSGGGGSGGGGSDIQMTQSPKFLLVSAGDRVTITCKASQSVRNDVAWYQQKPGQSPKLLIFYASKRYTGVPDRFTGSGYGTDFTFTISTVQAEDLAVYFCQQDYSSPTTFGCGTKLEIK
light: AQVLTQTPSPVSAVVGGTVSISCQASQSVYNNNNLSWYQQKPGQPPKLLIYDASKLASGVPSRFKGSGSGTQFTLTISGVQCDDAATYYCLGGYYSSGWYFAFGGGTKVVVKRTPVAPTVLIFPPAADQVATGTVTIVCVANKYFPDVTVTWEVDGTTQTTGIENSKTPQNSADCTYNLSSTLTLTSTQYNSHKEYTCKVTQGTTSVVQSFNRGDC
Regarding B1, the “induction of inflammatory cytokines” value in the series with Human whole blood (250-2 nM, compared with PBS- and NegCtrl BYbe-treated wells) is given as “little or no induction”. For the same molecule, the “Bottom (%) level of % cell reduction” value is recorded as 16.98% with SU-DHL-4; 13.56% with Raji; 23.49% in the series on Jurkat; 5.07% in the series with NU-DUL-1; −65.46* % in the series with MC116 (calculated bottom of non-sigmoidal curve). The “Top (%) level of % cell reduction” value was determined as 91.88% in the series on SU-DHL-4; 74.02% with Raji; 99.27% in the series with Jurkat; 44.87% in the series on NU-DUL-1; 99.45% with MC116.

These data come from patent publication US20230374148A1, “BINDING MOLECULES THAT MULTIMERISE CD45” (UCB BIOPHARMA SRL, priority 2020, published 2023).
